Target: PCNA3_(N106R)-P450cam fusion protein (Sulfolobus solfataricus | Pseudomonas putida)

## PCNA2-G4S(P5)4G4S-PdX
  substrate-dependent O2 consumption rate (monooxygenase activity) of PUPPET-P4 at 18 nM complex, 25°C: 6.5 µM/min

From article PMC3764174
